{"source": "patent US8785135B2", "about": "“Mutant G-protein coupled receptors and methods for selecting them” (Heptares Therapeutics Limited, priority 2007, dated 2014)", "molecules": {"B1": {"name": "Rant 21: A2aR mutant A54L, T88A, V239A+K122A (protein, UniProt P29274 1-412, looked up, variant A54L T88A V239A K122A)", "Adenosine receptor A2a": "MPIMGSSVYITVELAIAVLAILGNVLVCWAVWLNSNLQNVTNYFVVSLAAADILVGVLAIPFAITISTGFCAACHGCLFIACFVLVLAQSSIFSLLAIAIDRYIAIRIPLRYNGLVTGTRAAGIIAICWVLSFAIGLTPMLGWNNCGQPKEGKNHSQGCGEGQVACLFEDVVPMNYMVYFNFFACVLVPLLLMLGVYLRIFLAARRQLKQMESQPLPGERARSTLQKEVHAAKSLAIIAGLFALCWLPLHIINCFTFFCPDCSHAPLWLMYLAIVLSHTNSVVNPFIYAYRIREFRQTFRKIIRSHVLRQQEPFKAAGTSARVLAAHGSDGEQVSLRLNGHPPGVWANGSAPHPERRPNGYALGLVSGGSAQESQGNTGLPDVELLSHELKGVCPEPPGLDDPLAQDGAGVS"}}, "key": {"[1]": {"assay": "Thermostability of β adrenergic receptors expressed in mammalian cells, minus-ligand format", "conditions": "0.1% dodecylmaltoside, apo-state heated, 3H-DHA added after", "description": "The resulting mutants were transiently expressed in mammalian cells, solubilised in 0.1% dodecylmaltoside and assayed for thermostability in the minus-ligand format (heating the apo-state, quenching on ice, adding 3H-DHA)."}, "[2]": {"assay": "Thermostability assay of βAR34-424 and mutants (heat detergent-solubilised receptor 30 min, then [3H]-DHA binding)", "conditions": "heated 30 min without ligand", "protocol": "Binding assays were performed using [^3H]-dihydroalprenolol (DHA) as radioligand as described under “Methods”. Samples were heated for 30 minutes at different temperatures before the assay. […] Data points are from duplicates of one single experiment. This experiment has been repeated several times with similar results.\nExpression of βAR and the mutants was performed in X10 cells (Stratagene). Cultures of 50 ml of 2×TY medium containing ampicillin (100 μg/ml) were grown at 37° C. with shaking until OD600=3 and then induced with 0.4 mM IPTG. Induced cultures were incubated at 25° C. for 4 h and then cells were harvested by centrifugation at 13,000×g for 1 min (aliquots of 2 ml) and stored at ±20° C. For the assays, cells were broken by freeze-thaw (five cycles), resuspended in 500 μl of buffer [20 mM Tris pH 8, 0.4 M NaCl, 1 mM EDTA and protease inhibitors (Complete™, Roche)]. After an incubation for 1 h at 4° C. with 100 μg/ml lysozyme and DNase I (Sigma), samples were solubilized with 2% DDM on ice for 30 minutes. Insoluble material was removed by centrifugation (15,000×g, 2 min, 4° C.) and the supernatant was used directly in radioligand binding assays.\nSingle point binding assays contained 20 mM Tris pH 8, 0.4 M NaCl, 1 mM EDTA, 0.1% DDM (or corresponding detergent) with 50 nM [^3H]-DHA and 20-100 μg membrane protein in a final volume of 120 μl; equilibration was for 1 h at 4° C. Thermostability was assessed by incubating the binding assay mix, with or without [^3H]-DHA at the specified temperature for 30 minutes; reactions were placed on ice and [^3H]-DHA added as necessary and equilibrated for a further hour. […] Radioactivity was counted on a Beckman LS6000 liquid scintillation counter and data were analyzed by nonlinear regression using Prism software (GraphPad)."}, "βAR-m23": {"biological_target": "βAR-m23 (Meleagris gallopavo, UniProt P07700, A282L/C116L/F327A/F338M/M90V/R68S/Y227A)", "sequence (P07700 34-424 R68S/M90V/C116L/Y227A/A282L/F327A/F338M)": "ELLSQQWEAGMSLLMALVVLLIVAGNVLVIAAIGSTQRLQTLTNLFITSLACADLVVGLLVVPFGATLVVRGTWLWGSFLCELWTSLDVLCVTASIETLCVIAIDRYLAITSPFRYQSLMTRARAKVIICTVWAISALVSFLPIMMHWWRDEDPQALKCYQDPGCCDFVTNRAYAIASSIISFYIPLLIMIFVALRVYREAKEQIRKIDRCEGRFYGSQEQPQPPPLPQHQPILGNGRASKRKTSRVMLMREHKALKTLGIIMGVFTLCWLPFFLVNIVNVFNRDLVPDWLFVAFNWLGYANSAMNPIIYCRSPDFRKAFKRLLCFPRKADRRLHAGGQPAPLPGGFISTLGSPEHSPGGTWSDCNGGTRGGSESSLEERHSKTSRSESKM", "assay_type": "binding, turkey"}, "Rant 21": {"biological_target": "Rant 21 (Homo sapiens, UniProt P29274, A54L/K122A/T88A/V239A)", "assay": "Competition assay against [3H]ZM241385, detergent-solubilised receptor", "assay_type": "binding", "conditions": "versus wild-type A2aR"}, "[3]": {"assay": "Thermostability of A2aR and mutants (ligand binding after or during heating)", "assay_type": "physicochemical", "excerpt": "FIG. 12 Flow chart showing the two different assay formats of ligand (+) and ligand (−) used to determine receptor thermostability.\n• 1. 315 site-directed mutants made between residues 2-316 of A2aR. • 2. All of these mutants have been assayed for thermostability using an assay measuring agonist and antagonist binding after the heating step (Ligand(−) format as described in FIG. 12). • a. […] Mutations have been combined to generate mutants in a putative antagonist conformation. Wildtype A2aR has a Tm of 31° C. with ZM241385 bound. • a. Rant17 A54L+K122A+L235A Tm 48° C. (ZM241385 bound) • b. Rant19 A54L, T88A, V239A+A204L Tm 47° C. (ZM241385 bound) • c. Rant21 A54L, T88A, V239A+K122A Tm 49° C. (ZM241385 bound) • 4. Mutations from the agonist screen have been combined, but have led to only a very low level of improvement in Tm of +2° C."}, "[4]": {"assay": "Stability of wild-type and mutant A2aR in different detergents", "assay_type": "physicochemical"}}, "note": "Like-named read-outs stand apart in the source and are kept apart here."}
{"molecule": "human β1: human β1 adrenergic receptor", "values": [{"measurement": "apparent Tm", "setting": "[1]", "result": "~12", "unit": "°C"}]}
{"molecule": "turkey β1: turkey β1 adrenergic receptor transiently expressed in mammalian cells", "values": [{"measurement": "apparent Tm", "setting": "[1]", "result": 23, "unit": "°C"}]}
{"molecule": "M90A: βAR34-424 point mutant", "values": [{"measurement": "increase in Tm compared to βAR34-424", "setting": "[2]; DDM", "result": 8, "unit": "°C"}]}
{"molecule": "1-[4,6-propyl-^3H]-dihydroalprenolol [[^3H]-dihydroalprenolol]", "values": [{"measurement": "Kd", "setting": "βAR-m23; membranes, n=2", "result": "6.5 ± 0.2", "unit": "nM"}, {"measurement": "Kd", "setting": "βAR-m23; semipurified receptor", "result": 12.5, "unit": "nM"}]}
{"molecule": "m10-4: βAR34-424 mutant R68S, M90V, V230A, A334L", "values": [{"measurement": "Tm", "setting": "[2]; turkey βAR expressed in E. coli, DDM-solubilised, [3H]-DHA binding, mean ± S.E. from duplicates", "result": "46.9 ± 1.0", "unit": "°C"}]}
{"molecule": "B1", "values": [{"measurement": "agonist binding weaker than parent", "setting": "Rant 21", "result": "2-4 orders of magnitude"}, {"measurement": "Tm +antagonist", "setting": "[3]; 1% DDM (no glycerol), antagonist-occupied state", "result": 49, "unit": "°C"}, {"measurement": "Tm −antagonist", "setting": "[3]; 1% DDM (no glycerol), apo-state, antagonist binding", "result": 41, "unit": "°C"}, {"measurement": "Tm", "setting": "[3]; ZM241385 bound", "result": 49, "unit": "°C"}, {"measurement": "Tm Antagonist-binding", "setting": "[4]; 0.003% LDAO", "result": 42, "unit": "°C"}, {"measurement": "Tm Antagonist-binding", "setting": "[4]; 0.006% FC12", "result": 49, "unit": "°C"}, {"measurement": "Tm Antagonist-binding", "setting": "[4]; 0.01% DDM", "result": 39, "unit": "°C"}, {"measurement": "Tm Antagonist-binding", "setting": "[4]; 0.1% DM", "result": 28, "unit": "°C"}, {"measurement": "Tm Antagonist-binding", "setting": "[4]; 0.3% NG", "result": 22, "unit": "°C"}, {"measurement": "Tm Antagonist-binding", "setting": "[4]; 0.3% NM", "result": 25, "unit": "°C"}, {"measurement": "Tm Antagonist-binding", "setting": "[4]; 0.6% OG", "result": 23, "unit": "°C"}]}
